Earlier results on one molecule are cited in patent US20050220810A1, “Anti-aging preparation” (Shiseido Company, Ltd., priority 2002, published 2005).

This data set relates to vascular endothelial cell HMVEC. Particulars: general statement on positive controls of TSP-1 induction; no test described.

B1: TPA: tissue plasminogen activator, a positive control of the TSP-1 inducing substance (protein, UniProt P00750 36-562, looked up)
Tissue-type plasminogen …: SYQVICRDEKTQMIYQQHQSWLRPVLRSNRVEYCWCNSGRAQCHSVPVKSCSEPRCFNGGTCQQALYFSDFVCQCPEGFAGKCCEIDTRATCYEDQGISYRGTWSTAESGAECTNWNSSALAQKPYSGRRPDAIRLGLGNHNYCRNPDRDSKPWCYVFKAGKYSSEFCSTPACSEGNSDCYFGNGSAYRGTHSLTESGASCLPWNSMILIGKVYTAQNPSAQALGLGKHNYCRNPDGDAKPWCHVLKNRRLTWEYCDVPSCSTCGLRQYSQPQFRIKGGLFADIASHPWQAAIFAKHRRSPGERFLCGGILISSCWILSAAHCFQERFPPHHLTVILGRTYRVVPGEEEQKFEVEKYIVHKEFDDDTYDNDIALLQLKSDSSRCAQESSVVRTVCLPPADLQLPDWTECELSGYGKHEALSPFYSERLKEAHVRLYPSSRCTSQHLLNRTVTDNMLCAGDTRSGGPQANLHDACQGDSGGPLVCLNDGRMTLVGIISWGLGCGQKDVPGVYTKVTNYLDWIRDNMRP
Turning to B1, the “induction of cell death in vascular endothelial cells” value was “does not induce cell death”.
